Measured values as given in patent publication US20230322893A1 (BPGENE, published 2023).

Target: recombinant CD47 protein (UniProt Q08722 19-139)
Test: SPR; recombinant CD47 coupled to CM5 chip (250 RU); 1:1 model, global fit
Description: Specifically, the recombinant CD47 protein was conjugated to the surface of the CM5 chip by a target SPR reaction of 250 RU through an EDC-NHS reaction to be used, and for HBS-P, the sensogram obtained through a process of association for 3 minutes and dissociation for 10 minutes at a flow rate of 30 µL/minutes was analyzed with the BiaEvaluation software using a 1:1 binding model and global fitting.

recombinant CD47 protein, sequence (Q08722 19-139 limits assumed): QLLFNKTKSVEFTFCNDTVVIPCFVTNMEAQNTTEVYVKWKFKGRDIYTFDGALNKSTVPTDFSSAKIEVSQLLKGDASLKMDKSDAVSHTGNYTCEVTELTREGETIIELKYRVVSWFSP

Binder | Kd [nM] | koff [s⁻¹] | kon [M⁻¹ s⁻¹]
SV4 (designed binder, also called SV4 protein) MEEELQIIQPDLSVSVAAGESAILHCTITSLFPVGPIQWFRGAGPARVLIYNQRQGPFPRVTTVSETTKRENMDFSISISNITPADAGTYYCIKFRKGSPDTEFLSGAGTELSVRAKPS | 1.67 | 0.000275 | 164000
SV4-DSPE (other, also called DSPE-SV4; DSPE-PEG2000-SV4) MEEELQIIQPDLSVSVAAGESAILHCTITSLFPVGPIQWFRGAGPARVLIYNQRQGPFPRVTTVSETTKRENMDFSISISNITPADAGTYYCIKFRKGSPDTEFLSGAGTELSVRAKPS | 1.13 | 0.000256 | 227000
SV4-iLP (other, also called LPD-SV4; SV4-conjugated iLP) MEEELQIIQPDLSVSVAAGESAILHCTITSLFPVGPIQWFRGAGPARVLIYNQRQGPFPRVTTVSETTKRENMDFSISISNITPADAGTYYCIKFRKGSPDTEFLSGAGTELSVRAKPS | 1.27 | 0.000395 | 312000
